According to article PMC9700037:

Columns and labels:
[1] = biological target: His6-tev-DPP9, Q86TI2; assay: SEC-MALS; co-eluting SEC fractions of FIIND and DPP9 co-expressed in Sf9 WITHOUT the free UPA construct, co-purified; 0.5-1.0 mg/ml, Superose 6 increase (10/300) GL, buffer A without glycerol; conditions: remark: other sources report otherwise
[2] = biological target: T1, biotin-MBP-NLRP1 wt (Avi-MBP-tev-NLRP1) (human), Q9C000; assay: SPR; 20-fold excess Val-boroPro (VbP); NLRP1 multimer; conditions: enzyme; chains chain; biotin (on the Avi tag, BirA co-expressed); remark: other sources report otherwise
T1 chain: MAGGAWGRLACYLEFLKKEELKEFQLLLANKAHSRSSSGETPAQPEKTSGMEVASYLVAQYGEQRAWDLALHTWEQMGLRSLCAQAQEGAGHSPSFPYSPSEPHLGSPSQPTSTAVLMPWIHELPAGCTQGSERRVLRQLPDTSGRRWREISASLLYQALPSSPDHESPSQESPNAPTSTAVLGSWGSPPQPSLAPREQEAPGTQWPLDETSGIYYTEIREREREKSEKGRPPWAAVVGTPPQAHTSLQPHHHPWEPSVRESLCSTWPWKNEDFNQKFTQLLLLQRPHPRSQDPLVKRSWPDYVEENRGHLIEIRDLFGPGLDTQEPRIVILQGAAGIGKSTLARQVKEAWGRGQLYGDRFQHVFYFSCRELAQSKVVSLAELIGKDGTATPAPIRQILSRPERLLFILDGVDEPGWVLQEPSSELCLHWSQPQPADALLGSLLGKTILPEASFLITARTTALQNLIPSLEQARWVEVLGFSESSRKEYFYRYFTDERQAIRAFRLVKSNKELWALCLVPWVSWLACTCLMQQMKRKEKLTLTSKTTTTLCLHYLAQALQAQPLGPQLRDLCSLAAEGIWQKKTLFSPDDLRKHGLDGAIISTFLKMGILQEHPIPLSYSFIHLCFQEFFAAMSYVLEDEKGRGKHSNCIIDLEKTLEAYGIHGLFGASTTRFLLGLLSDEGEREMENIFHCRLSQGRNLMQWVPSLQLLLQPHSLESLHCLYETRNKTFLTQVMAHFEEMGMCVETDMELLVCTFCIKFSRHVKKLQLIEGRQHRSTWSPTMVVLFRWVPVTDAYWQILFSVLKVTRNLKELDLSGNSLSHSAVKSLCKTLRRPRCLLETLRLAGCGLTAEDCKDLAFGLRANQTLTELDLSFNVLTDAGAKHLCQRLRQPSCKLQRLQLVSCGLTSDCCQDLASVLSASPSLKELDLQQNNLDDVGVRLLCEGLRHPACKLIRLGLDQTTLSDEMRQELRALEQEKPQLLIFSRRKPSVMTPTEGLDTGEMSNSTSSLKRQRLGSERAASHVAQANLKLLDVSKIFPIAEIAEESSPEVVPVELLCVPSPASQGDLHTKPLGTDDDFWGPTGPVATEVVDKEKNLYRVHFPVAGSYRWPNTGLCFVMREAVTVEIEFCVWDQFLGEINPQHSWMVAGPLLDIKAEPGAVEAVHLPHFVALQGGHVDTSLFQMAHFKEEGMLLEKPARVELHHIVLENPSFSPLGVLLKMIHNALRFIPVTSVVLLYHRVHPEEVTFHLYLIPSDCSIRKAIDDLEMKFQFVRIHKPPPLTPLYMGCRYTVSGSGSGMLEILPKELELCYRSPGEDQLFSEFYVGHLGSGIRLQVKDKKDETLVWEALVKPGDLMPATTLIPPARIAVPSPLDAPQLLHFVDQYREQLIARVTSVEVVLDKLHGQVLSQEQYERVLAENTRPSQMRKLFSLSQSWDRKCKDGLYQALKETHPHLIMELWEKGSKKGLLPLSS

[3] = biological target: T1, biotin-MBP-NLRP1 wt (Avi-MBP-tev-NLRP1) …; assay: SPR; Biotin-FLAG-NLRP1 (from HEK293T) or biotin-MBP-NLRP1 (from Sf9, multimer fraction) or biotin-MBP immobilised on a streptavidin chip; DPP9 injected at 78-2500 nM, single-cycle kinetics, 10 mM Hepes pH 7.5, 150 mM NaCl, 0.5 mM TCEP, 0.05% Tween-20; conditions: remark: other sources report otherwise
[4] = biological target: T2, Biotin-FLAG-NLRP1 wt (human), Q9C000; assay: as above; conditions: remark: other sources report otherwise
T2 chain: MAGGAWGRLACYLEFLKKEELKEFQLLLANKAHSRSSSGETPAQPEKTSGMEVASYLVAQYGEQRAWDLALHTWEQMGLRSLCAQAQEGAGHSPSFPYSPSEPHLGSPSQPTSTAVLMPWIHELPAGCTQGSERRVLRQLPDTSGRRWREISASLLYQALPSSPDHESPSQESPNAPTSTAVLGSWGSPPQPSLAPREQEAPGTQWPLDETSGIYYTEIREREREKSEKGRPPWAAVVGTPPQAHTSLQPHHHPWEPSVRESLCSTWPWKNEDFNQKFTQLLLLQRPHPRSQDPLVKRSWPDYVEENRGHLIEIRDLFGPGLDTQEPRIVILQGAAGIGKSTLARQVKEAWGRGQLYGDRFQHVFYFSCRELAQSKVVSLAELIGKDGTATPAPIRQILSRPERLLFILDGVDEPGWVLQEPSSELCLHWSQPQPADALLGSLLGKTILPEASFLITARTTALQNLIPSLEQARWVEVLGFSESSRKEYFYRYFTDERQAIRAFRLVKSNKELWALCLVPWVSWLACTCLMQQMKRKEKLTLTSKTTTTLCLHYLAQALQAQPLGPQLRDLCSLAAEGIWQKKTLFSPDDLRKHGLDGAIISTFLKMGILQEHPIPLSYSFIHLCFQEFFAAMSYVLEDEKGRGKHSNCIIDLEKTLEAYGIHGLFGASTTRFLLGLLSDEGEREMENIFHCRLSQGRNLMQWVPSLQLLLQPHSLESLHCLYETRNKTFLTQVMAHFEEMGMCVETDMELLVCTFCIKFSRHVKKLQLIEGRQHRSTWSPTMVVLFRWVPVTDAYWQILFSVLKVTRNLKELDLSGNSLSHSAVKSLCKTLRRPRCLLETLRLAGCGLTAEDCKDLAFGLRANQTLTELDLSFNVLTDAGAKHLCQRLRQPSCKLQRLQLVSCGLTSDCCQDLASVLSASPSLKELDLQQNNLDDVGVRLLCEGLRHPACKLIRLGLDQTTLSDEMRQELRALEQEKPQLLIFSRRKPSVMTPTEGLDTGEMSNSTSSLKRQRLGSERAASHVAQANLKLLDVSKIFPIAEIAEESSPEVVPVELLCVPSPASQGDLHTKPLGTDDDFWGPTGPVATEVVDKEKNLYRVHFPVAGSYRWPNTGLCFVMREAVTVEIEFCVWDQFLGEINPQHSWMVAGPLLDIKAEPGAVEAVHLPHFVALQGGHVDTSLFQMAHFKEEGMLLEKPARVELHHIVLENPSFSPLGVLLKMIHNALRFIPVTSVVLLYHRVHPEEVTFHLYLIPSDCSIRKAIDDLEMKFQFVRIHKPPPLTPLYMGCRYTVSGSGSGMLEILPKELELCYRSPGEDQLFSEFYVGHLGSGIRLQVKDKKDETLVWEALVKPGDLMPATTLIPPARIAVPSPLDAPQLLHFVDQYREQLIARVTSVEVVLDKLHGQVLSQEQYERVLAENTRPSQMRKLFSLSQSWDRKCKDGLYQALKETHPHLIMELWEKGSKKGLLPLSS

[5] = biological target: His6-tev-DPP9, Q86TI2; assay: SEC-MALS; co-eluting SEC fractions of FIIND, DPP9 and free UPA co-expressed in Sf9 and co-purified; 0.5-1.0 mg/ml, Superose 6 increase (10/300) GL, buffer A without glycerol; conditions: remark: other sources report otherwise
[6] = biological target: T1, biotin-MBP-NLRP1 wt (Avi-MBP-tev-NLRP1) …; assay: SPR; NLRP1 void (high MW) fraction; conditions: enzyme; chains chain; biotin (on the Avi tag, BirA co-expressed); remark: other sources report otherwise

B1: His6-tev-DPP9, Q86TI2 1-863 (protein)
chain: MATTGTPTADRGDAAATDDPAARFQVQKHSWDGLRSIIHGSRKYSGLIVNKAPHDFQFVQKTDESGPHSHRLYYLGMPYGSRENSLLYSEIPKKVRKEALLLLSWKQMLDHFQATPHHGVYSREEELLRERKRLGVFGITSYDFHSESGLFLFQASNSLFHCRDGGKNGFMVSPMKPLEIKTQCSGPRMDPKICPADPAFFSFINNSDLWVANIETGEERRLTFCHQGLSNVLDDPKSAGVATFVIQEEFDRFTGYWWCPTASWEGSEGLKTLRILYEEVDESEVEVIHVPSPALEERKTDSYRYPRTGSKNPKIALKLAEFQTDSQGKIVSTQEKELVQPFSSLFPKVEYIARAGWTRDGKYAWAMFLDRPQQWLQLVLLPPALFIPSTENEEQRLASARAVPRNVQPYVVYEEVTNVWINVHDIFYPFPQSEGEDELCFLRANECKTGFCHLYKVTAVLKSQGYDWSEPFSPGEDEFKCPIKEEIALTSGEWEVLARHGSKIWVNEETKLVYFQGTKDTPLEHHLYVVSYEAAGEIVRLTTPGFSHSCSMSQNFDMFVSHYSSVSTPPCVHVYKLSGPDDDPLHKQPRFWASMMEAASCPPDYVPPEIFHFHTRSDVRLYGMIYKPHALQPGKKHPTVLFVYGGPQVQLVNNSFKGIKYLRLNTLASLGYAVVVIDGRGSCQRGLRFEGALKNQMGQVEIEDQVEGLQFVAEKYGFIDLSRVAIHGWSYGGFLSLMGLIHKPQVFKVAIAGAPVTVWMAYDTGYTERYMDVPENNQHGYEAGSVALHVEKLPNEPNRLLILHGFLDENVHFFHTNFLVSQLIRAGKPYQLQIYPNERHSIRCPESGEHYEVTLLHFLQEYL
stoichiometry N [1]: 2
Kd [2]: 168 nM
Kd [3]: 140 nM
Kd [4]: 155 nM
stoichiometry N [5]: 2
Kd [6]: 173 nM
